Experiments:
[1] = test system: IBO-administered memory impairment and autism model; assay: Morris water maze experiment; format: in vivo, rat; details: MANF-AAV-hMSC transplanted into the hippocampus of IBO rats
Protocol: Memory impairment and autism models were prepared by administering IBO to the entorhinal cortex of the rats, wherein the IBO destroys granule cells of the dentate gyrus (DG) and pyramidal cells of the hippocampus, which receive nerve signals input from the entorhinal cortex. Specifically, the rats were anesthetized with equitensin (10% ethanol containing 350 mM pentobarbital sodium, 250 mM chloral hydrate, 85 mM MgSO and 40% propylene glycol). The incisor bar of a stereotaxic device (Stoelting Co., U.S.A.) was placed 3.4 mm below the interaural line, and the injection needle angle was fixed at […] right from the center of the sagittal plane. […]
The same number of rats as in each group of Example 6-1 was subjected to the Morris water maze experiment in a round, rust-free and inner surface-white swimming pool (diameter 160 cm; height 60 cm). […] The final experiment measured the time the rat stayed where the platform was for 60 seconds after removing the platform (probe trial). Swimming time and training length were tracked and recorded using a video camera. […] The captured video pictures were analyzed with a video tracking system (Ethovision water maze program, Noldus Information Technology, Wogeningen, The Netherlands). The analyzed information included the time of swimming in the target quadrant, and the number of crossings the imaginary platform to find the removed platform.

[2] = test system: primary neural progenitor cells; assay: GAD-GFP reporter plasmid assay of GABAergic nerve cell differentiation; format: cell-based, rat; details: MANF 30 ng/ml
From the text: In order to efficiently investigate the differentiation of the primary neural progenitor cells into GABAergic nerve cells by MANF, a plasmid (GAD-GFP) capable of easily and effectively observing and detecting the differentiation into the GABAergic nerve cells with the naked eye by recombining green fluorescent protein (GFP), a fluorescent protein, into the promoter region of the human GAD gene was used. When the activity of the promoter is increased, the differentiation into GABAergic nerve cells is promoted, and whether or not the activity of the promoter is increased can be monitored by the expression level of a reporter gene operably linked thereto. Accordingly, it can be seen that the differentiation into GABAergic nerve cells is promoted when the expression level of the reporter gene is increased. In addition, it is possible to easily observe the differentiation of GABAergic nerve cells using a transcription factor that binds to the promoter.
Specifically, on day 3 after culturing the primary neural progenitor cells, the cells were separated from the dish with 0.05% trypsin and subcultured, and then all groups were transfected with GAD-GFP DNA. The cells were seeded in a 24-well plate and cultured in N2 medium containing 10 ng/mL bFGF for 24 hours. N2 medium for differentiation without bFGF was treated with MANF at a concentration of 30 ng/ml, and after 3 and 5 days, it was fixed and stained.

[3] = test system: hippocampus of IBO-administered memory impairment and autism model; assay: Immunohistochemical analysis of brain tissue (BrdU, SOX2, DCX, NeuN, GAD67, CNPase); format: in vivo, rat; details: brain tissue after behavioral experiment
Protocol: The brain tissue stored in the same method as the immunostaining of Example 9-1 was washed twice with PBS, permeated in 0.5% Triton X-100 for 20 minutes, and cultured in 2N HCl at 37° C. for 30 minutes. Thereafter, blocking was performed in 15% standard serum, 3% bovine serum albumin (bio-WORLD, Dublin, OH, USA) and 0.1% Triton X-100 in a free-floating state for 2 hours. The tissue was doubly stained at 4° C. for 16 hours using BrdU (abcam, 1:700) antibody, SOX2 (R&D system, MAB2018, 1:2000), DCX (Santacruz, sc8066, 1:1000), NeuN (Millipore, MAB377B, 1:700), CNPase (Abcam, ab6319, 1:700), vGluT1 (Millipore, MAB5502, 1:700), GAD67 (Millipore, MAB5406, 1:2000) as primary antibodies. As secondary antibodies, mo-Alexa 488 (Invitrogen, A21202, 1:700), mo-Cy3 (Jackson lab, 715-165-151, 1:500), rb-Alexa 488 (Jackson lab, 711-546-152, 1:700), rat-Alexa 488 (Abcam, ab6326, 1:700), etc. were used. Immunostained tissues were scanned with a confocal microscope (LSM510, LSM800 Carl Zeiss, Oberkochen, Germany).
The number of differentiation markers in the hippocampus of each experimental animal was shown by counting the number of DAPI-labeled cells in the double and triple photographed slides and counting the number of each cells labeled by fluorescently labeling each differentiation marker, NeuN, CNPase, GAD and vGluT1. Here was counted the number of cells labeled with the secondary antibody that is precisely matched in shape and location and has the shape of a cell.

B1: MANF: one of 16 or more growth factors secreted into nerve stem cells by cerebrovascular cells; amino acid sequence of SEQ ID NO: 1 (protein)
chain: MRRMWATQGLAVALALSVLPGSRALRPGDCEVCISYLGRFYQDLKDRDVTFSPATIENELIKFCREARGKENRLCYYIGATDDAATKIINEVSKPLAHHIPVEKICEKLKKKDSQICELKYDKQIDLSTVDLKKLRVKELKKILDDWGETCKGCAEKSDYIRKINELMPKYAPKAASARTDL
modifications: MANF
For B1, the “memory ability in Morris water maze test” value [1] was “memory improvement”, the “number of NeuN-stained cells in MANF-treated group vs Con group” value ([2]; 3 and 5 days) was “no greater increase” and the “GFP-positive cells (GAD promoter-GFP, GABAergic differentiation)” value ([2]; 3 and 5 days, vs Con group) was “increased compared to the Con group”. The “number of NeuN-stained cells” value ([2]; after 3 days of differentiation) was 10%, the “number of NeuN-stained cells” value ([2]; after 5 days of differentiation) was 50% and the “differentiation of newly proliferated (BrdU stained) neural progenitor cells into GABAergic nerve cells (GAD)” value [3] was “increased”. The “differentiation of newly proliferated (BrdU stained) neural progenitor cells into mature nerve cells (NeuN)” value [3] was “increased”, the “differentiation of newly proliferated (BrdU stained) neural progenitor cells into oligodendrocytes (CNPase)” value [3] was “increased” and the “migration (DCX) of neural stem cells (Sox2+)” value ([3]; MANF-AAV-hMSC transplanted) was “promoted”. For the same molecule, the “proliferation (BrdU+, Ki67) of neural stem cells (Sox2+)” value ([3]; MANF-AAV-hMSC transplanted) was “promoted”.

Source: US20230363418A1, “COMPOSITION FOR PREVENTING OR TREATING NEUROPSYCHOLOGIC DISEASE, COMPRISING MANF” (CEFO CO., LTD., priority 2020, published 2023)
